In patent EP4680648A1 (dated 2026):

Key:
[1] = target: T1, His-tagged human HER3 protein (hHER3, ACRO Biosystems Inc., Cat#: ER3-H5223) (human, UniProt P21860 20-643); experiment: SPR (Biacore 8K), antibody captured on Protein A chip, His-tagged HER3 as analyte
T1 construct: Bought protein; also called hHER3-His; not shown: His tag

[2] = target: T2, dog HER3 expressed on CHO-S cells (CHO-dHER3 cells) (dog, UniProt P21860 20-1342 (human entry)); experiment: flow cytometry on CHO-dHER3 cells
T2 chain: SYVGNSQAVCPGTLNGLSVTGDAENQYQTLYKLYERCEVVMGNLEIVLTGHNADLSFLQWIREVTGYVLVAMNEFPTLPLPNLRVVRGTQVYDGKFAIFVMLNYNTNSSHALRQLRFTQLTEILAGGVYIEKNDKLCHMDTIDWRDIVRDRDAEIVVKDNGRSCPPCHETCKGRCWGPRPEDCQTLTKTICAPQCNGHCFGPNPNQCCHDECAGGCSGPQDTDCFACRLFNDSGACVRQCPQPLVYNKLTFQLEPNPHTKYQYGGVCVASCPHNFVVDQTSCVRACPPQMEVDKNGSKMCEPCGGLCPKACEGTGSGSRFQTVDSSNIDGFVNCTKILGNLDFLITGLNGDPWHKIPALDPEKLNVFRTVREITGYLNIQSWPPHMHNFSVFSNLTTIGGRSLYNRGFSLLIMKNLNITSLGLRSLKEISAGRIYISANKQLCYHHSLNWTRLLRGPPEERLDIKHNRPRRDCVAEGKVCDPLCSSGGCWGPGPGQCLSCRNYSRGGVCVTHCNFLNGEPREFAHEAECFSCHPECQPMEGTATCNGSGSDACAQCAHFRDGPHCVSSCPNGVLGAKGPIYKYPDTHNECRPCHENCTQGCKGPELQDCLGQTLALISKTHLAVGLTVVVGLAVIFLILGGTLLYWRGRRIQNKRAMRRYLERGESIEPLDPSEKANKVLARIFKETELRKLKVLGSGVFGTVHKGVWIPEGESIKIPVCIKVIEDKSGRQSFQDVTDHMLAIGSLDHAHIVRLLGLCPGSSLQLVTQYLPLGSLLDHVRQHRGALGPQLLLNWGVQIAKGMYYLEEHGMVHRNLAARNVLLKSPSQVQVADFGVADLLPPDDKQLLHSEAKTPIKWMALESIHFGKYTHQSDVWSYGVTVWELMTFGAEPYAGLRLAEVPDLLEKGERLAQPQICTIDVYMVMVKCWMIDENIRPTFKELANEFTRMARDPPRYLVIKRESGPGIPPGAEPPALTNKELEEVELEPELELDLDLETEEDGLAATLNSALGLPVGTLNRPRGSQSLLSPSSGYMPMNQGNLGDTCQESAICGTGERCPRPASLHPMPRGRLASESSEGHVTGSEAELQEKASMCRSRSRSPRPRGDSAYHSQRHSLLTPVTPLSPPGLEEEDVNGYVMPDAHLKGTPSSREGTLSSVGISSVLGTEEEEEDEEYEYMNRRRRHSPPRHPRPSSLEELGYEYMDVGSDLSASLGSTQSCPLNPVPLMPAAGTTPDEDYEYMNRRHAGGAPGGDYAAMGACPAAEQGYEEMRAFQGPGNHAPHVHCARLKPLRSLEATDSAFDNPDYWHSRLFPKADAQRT

[3] = target: mouse HER3 expressed on CHO-S cells (CHO-mHER3 cells) (mouse, UniProt Q61526 20-641); experiment: flow cytometry on CHO-mHER3 cells
Sequence of mouse HER3 expressed on CHO-S cells (CHO-mHER3 cells) (Q61526 20-641): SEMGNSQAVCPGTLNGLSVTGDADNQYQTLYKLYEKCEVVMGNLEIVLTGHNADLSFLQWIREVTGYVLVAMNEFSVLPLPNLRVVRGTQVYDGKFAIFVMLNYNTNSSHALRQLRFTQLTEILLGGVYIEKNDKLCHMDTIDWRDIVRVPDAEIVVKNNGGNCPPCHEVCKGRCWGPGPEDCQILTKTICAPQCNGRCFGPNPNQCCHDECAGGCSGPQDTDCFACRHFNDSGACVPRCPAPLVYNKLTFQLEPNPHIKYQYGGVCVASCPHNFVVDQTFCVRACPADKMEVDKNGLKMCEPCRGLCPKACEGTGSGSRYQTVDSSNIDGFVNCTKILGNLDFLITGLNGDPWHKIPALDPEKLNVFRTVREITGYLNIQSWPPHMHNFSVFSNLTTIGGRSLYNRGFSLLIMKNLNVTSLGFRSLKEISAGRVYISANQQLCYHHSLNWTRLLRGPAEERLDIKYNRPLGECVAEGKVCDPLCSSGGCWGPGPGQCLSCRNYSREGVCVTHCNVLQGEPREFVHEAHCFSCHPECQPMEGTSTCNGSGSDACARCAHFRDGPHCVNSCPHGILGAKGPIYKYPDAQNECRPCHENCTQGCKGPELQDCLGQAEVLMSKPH

[4] = target: human HER3 expressed on CHO-S cells (CHO-hHER3 cells) (human, UniProt P21860 20-643); experiment: flow cytometry on CHO-hHER3 cells
[5] = target: T3, monkey (Macaca fascicularis) HER3 expressed on CHO-S cells (CHO-fasHER3 cells) (monkey (Macaca fascicularis), UniProt P21860 20-643 (human entry)); experiment: flow cytometry on CHO-fasHER3 cells
T3 construct: also called monkey HER3
T3 chain: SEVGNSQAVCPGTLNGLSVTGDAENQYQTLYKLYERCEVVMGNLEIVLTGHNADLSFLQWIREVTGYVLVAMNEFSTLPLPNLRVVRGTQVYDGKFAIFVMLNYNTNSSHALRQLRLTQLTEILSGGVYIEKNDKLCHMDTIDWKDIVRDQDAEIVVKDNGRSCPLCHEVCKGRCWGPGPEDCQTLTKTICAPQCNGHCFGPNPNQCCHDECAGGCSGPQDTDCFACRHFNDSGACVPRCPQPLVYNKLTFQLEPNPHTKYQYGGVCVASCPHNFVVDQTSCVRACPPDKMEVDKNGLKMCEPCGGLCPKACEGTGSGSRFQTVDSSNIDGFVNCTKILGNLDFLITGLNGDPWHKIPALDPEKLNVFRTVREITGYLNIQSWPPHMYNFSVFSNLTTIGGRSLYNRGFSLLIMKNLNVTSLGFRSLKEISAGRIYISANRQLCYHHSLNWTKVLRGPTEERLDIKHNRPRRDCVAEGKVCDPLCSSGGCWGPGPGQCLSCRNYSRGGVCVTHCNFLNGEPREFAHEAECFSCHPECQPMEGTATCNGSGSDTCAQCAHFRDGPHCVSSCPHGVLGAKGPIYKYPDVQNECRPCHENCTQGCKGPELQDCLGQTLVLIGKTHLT

[6] = target: T1, His-tagged human HER3 protein (hHER3, …); experiment: SPR (Biacore 8K), antibody captured on Protein A chip, His-tagged hHER3 as analyte

Measured: binding result

B1: anti-HER3 antibody 1D6 (antibody, human IgG1, V domains shown)
VH: EVQLVQSGPGLVKPSETLSLTCTVSGGSISSNNYYWAWIRQPPGKGLEWIGSLYYTGRAYYKSSLKSRVTISVDTSNDQFSLRLTSVTAADTAIYYCARHDCGNTCLNWFDRWGQGTLVTVSS
VL: not shown
notes: common light chain
not listed: [6]
binds: all other assays above

B2: anti-HER3 antibody 1C5 (antibody, human IgG1, V domains shown)
VH: QVQLVESGGGVVQPGKSLRLSCAASGFTFSRSGMHWVRQAPGKGLEWVALISFDGSNKYYADSVKGRFTISRDNSKNTLNLQMNSLRAEDTAVYYCAKGGFGVVIYDAFDIWGHGTMVTVSS
VL: not shown
notes: common light chain
binds: [2] | [4] | [5] | [6]

B3: anti-HER3 antibody 3G6 (antibody, human IgG1, V domains shown)
VH: QVQLVQSGPVLVKPTETLTLTCTVSGFSLSNIRMGVSWIRQPPGKALEWLAHIFSNDDKSYSTSLKSRLTISKDTSKSQVVLTMTNVDPVDTATYYCTRMRYSGGPFDYWGQGTLVTVSS
VL: not shown
notes: common light chain
not listed: [1]
binds: all other assays above

B4: anti-HER3 antibody 1B2 (antibody, V domains shown)
VH: QVQLVQSGPVLVKPTETLTLTCTVSTFSLSNARMGVSWIRQPPGKALEWLAHIFSNDDKSYSPSLKSRLTISKDTSKTQVVLTMTNMDPVDTATYYCSRMRYSGGPFDYWGQGSLVTVSS
VL: not shown
notes: common light chain
not listed: [1]
binds: all other assays above

B5: anti-HER3 antibody 3E1 (antibody, human IgG1, V domains shown)
VH: EVQLVQSGPVLAKPTETLTLTCTVSGFSLSNIRMGVSWIRQPPGKALEWLAHIFSNDDKSYSPSLKNRLTISKDTSKSQVVLTMTTMDPMDTATYYCTRMKYSGGPFDYWGQGTLVTVSS
VL: not shown
notes: common light chain
not listed: [1]
binds: all other assays above
